# Literature values as cited in article PMC12493190.
# How the values were obtained:
# [1] = target: phospho-ubiquitin (Homo sapiens) (UniProt P0CG47)
# [2] = target: parkin pUbl Ubl (Homo sapiens) (UniProt O60260)
# Sequence of parkin pUbl Ubl (Homo sapiens) (O60260 1-76): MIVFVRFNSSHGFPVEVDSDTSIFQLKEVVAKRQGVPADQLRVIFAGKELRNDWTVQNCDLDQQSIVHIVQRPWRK
# Sequence of parkin RING0 (O60260 141-225): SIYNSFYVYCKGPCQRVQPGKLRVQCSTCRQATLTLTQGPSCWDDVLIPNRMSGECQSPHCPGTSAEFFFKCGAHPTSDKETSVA
substance,measurement,setting,value
parkin RING0 (from UniProt O60260),Kd,[1],400 nM
same,Kd,[2],1000 nM
